These results are taken from US20150165065A1 (AVIDBIOTICS, published 2015).

Substitutions are numbered along the chain they refer to. Names and notes keep the numbering of the source. Like-named read-outs stand apart in the source and are kept apart here.

Experiment [1] deals with T1, integrin αVβ3 (UniProt P06756 31-992; P05106 27-718).
T1 construct: Coated on the ELISA plate
Kind of experiment: ELISA, coated integrin, anti-MICA-HRP. On the procedure: (§1) The ability of the soluble MICA molecules in each of the concentrated supernatants to bind target molecules was assayed by an ELISA using the intended target proteins, integrin αVβ3 or αVβ5, as capture agents on the ELISA plate. After the respective integrins were adhered to the bottoms of the wells of the ELISA plate, the wells were washed and blocked, as well known in the field. Each sample (100 μl) of soluble MICA produced and secreted by 293T cells was added to wells containing αVβ3 or αVβ5, incubated and washed. The soluble MICA molecules captured by the integrins were detected by HRP-conjugated antibody to human MICA developed with Ultra TMB-ELISA substrate and the optical densities read. The quantity of soluble MICA in each sample was determined by the MICA-specific ELISA. […] The ELISA signal from a non-binding, negative control MICA (generated by pSW273) was subtracted from each integrin binding signal.
For orientation: An ELISA detects its analyte on a solid surface through an enzyme-linked reagent.

In experiment [2] the target is T2, integrin αVβ5 (UniProt P06756 31-992; P18084 24-719).
T2 construct: Coated on the ELISA plate
Nature of the experiment: ELISA, coated integrin, anti-MICA-HRP. As for the experimental part:
as §1

In experiment [3] the target is T1, integrin αVβ3. Nature of the experiment: ELISA, coated integrin, anti-MICA-HRP. On the procedure:
(§2) ELISA assays of the integrin target-binding of soluble MICA molecules generated from pKK128-131 were performed as follows. After the respective integrins were adhered to the bottoms of the wells of the ELISA plate, the wells were washed and blocked. Each sample (100 μl) of culture supernatant was added to wells containing αVβ3 or αVβ5, incubated and washed. The soluble MICA molecules captured by the integrins were detected by HRP-conjugated antibody to human MICA developed with Ultra TMB-ELISA substrate and the optical densities read. The quantity of soluble MICA in each sample was determined by the MICA-specific ELISA.
The source holds these as a separate data set.

Experiment [4] deals with T2, integrin αVβ5. Kind of experiment: ELISA, coated integrin, anti-MICA-HRP. On the procedure:
as §2
This is another data set of the same source.

Experiment [5] concerns the target T3, biotinylated human NKG2D (human, UniProt P26718 78-216, limits assumed, biotinylated (site not stated)).
T3 construct: Surface-coated in biolayer interferometry (Octet); also called recombinant biotinylated NKG2D
T3 sequence (looked up): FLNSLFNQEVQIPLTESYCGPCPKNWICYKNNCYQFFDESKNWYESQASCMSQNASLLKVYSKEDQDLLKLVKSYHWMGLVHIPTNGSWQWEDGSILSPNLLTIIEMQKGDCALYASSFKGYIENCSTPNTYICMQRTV
Kind of experiment: BLI (Octet), Kd = kOFF/kON.

The target in a further experiment is T4, human NKG2D-Fc (human, UniProt P26718 78-216, limits assumed).
T4 construct: construct not described; also called human NKG2D-Fc reagent; not shown: Fc part
T4 sequence (looked up): T3 sequence (looked up)
Kind of experiment: competition ELISA, 2 nM human NKG2D-Fc on coated WT sMICA. The text has this:
As for the NKG2D ligands (NKG2DLs) in the above example, we attached polypeptides directly to each of these 4 modified α1-α2 NKG2DLs using a linker peptide. The 4 His-tagged proteins (SEQ ID NOs.: 131-134) were expressed in insect cells and purified to characterize their NKG2D binding affinities and kinetic binding parameters. Using a competitive binding ELISA, we determined the relative NKG2D binding affinities of the 4 modified α1-α2 variants.

Experiment [6] deals with T3, biotinylated human NKG2D. Nature of the experiment: BLI (Octet), coated biotinylated human NKG2D, 100 nM analyte. (In general: BLI is a label-free optical method that tracks binding on a fibre tip over time.)
For experiment [7], the target named is T1, integrin αVβ3. Nature of the experiment: phage ELISA, coated integrin, anti-M13-HRP. On the procedure:
(§3) The phage vectors were independently transformed into NEBαF′tet competent E. coli cells. Phages produced by the transformed cells were tittered and their concentrations adjusted by dilution to 10¹³ per ml. The ability of the soluble MICA molecules in each of the phage preparations was assayed by an ELISA using the intended target proteins, integrin αVβ3 or αVβ5, as capture agents on the ELISA plate. After the respective integrins were adhered to the bottoms of the wells of the ELISA plate, the wells were washed and blocked, as well known in the field. Each sample (100 μl) of phage preparation was added to wells containing αVβ3 or αVβ5, incubated and washed. The phages captured by the integrins were detected by HRP-conjugated antibody to the M13 phage coat developed with Ultra TMB-ELISA substrate and the optical densities read.

The target in experiment [8] is T2, integrin αVβ5. Kind of experiment: phage ELISA, coated integrin, anti-M13-HRP. As for the experimental part:
as §3

Experiment [9] concerns the target T1, integrin αVβ3. Kind of experiment: phage ELISA, coated integrin, anti-M13-HRP. As for the experimental part: (§4) The ELISA assays of the integrin target-binding of M13 phages displaying α3 domains with binding peptide inserts grafted into more than one loop were performed as follows. After the respective integrins were adhered to the bottoms of the wells of the ELISA plate, the wells were washed and blocked. Each sample (100 μl) of phage preparation was added to wells containing αVβ3 or αVβ5, incubated and washed. The phages captured by the integrins were detected by HRP-conjugated antibody to the M13 phage coat developed with Ultra TMB-ELISA substrate and the optical densities read.
This is another data set of the same source.

The target of experiment [10] is T2, integrin αVβ5. Kind of experiment: phage ELISA, coated integrin, anti-M13-HRP. As for the experimental part:
as §4
The source holds these as a separate data set.

T2 sequence (P06756 31-992, chain 1 of 2): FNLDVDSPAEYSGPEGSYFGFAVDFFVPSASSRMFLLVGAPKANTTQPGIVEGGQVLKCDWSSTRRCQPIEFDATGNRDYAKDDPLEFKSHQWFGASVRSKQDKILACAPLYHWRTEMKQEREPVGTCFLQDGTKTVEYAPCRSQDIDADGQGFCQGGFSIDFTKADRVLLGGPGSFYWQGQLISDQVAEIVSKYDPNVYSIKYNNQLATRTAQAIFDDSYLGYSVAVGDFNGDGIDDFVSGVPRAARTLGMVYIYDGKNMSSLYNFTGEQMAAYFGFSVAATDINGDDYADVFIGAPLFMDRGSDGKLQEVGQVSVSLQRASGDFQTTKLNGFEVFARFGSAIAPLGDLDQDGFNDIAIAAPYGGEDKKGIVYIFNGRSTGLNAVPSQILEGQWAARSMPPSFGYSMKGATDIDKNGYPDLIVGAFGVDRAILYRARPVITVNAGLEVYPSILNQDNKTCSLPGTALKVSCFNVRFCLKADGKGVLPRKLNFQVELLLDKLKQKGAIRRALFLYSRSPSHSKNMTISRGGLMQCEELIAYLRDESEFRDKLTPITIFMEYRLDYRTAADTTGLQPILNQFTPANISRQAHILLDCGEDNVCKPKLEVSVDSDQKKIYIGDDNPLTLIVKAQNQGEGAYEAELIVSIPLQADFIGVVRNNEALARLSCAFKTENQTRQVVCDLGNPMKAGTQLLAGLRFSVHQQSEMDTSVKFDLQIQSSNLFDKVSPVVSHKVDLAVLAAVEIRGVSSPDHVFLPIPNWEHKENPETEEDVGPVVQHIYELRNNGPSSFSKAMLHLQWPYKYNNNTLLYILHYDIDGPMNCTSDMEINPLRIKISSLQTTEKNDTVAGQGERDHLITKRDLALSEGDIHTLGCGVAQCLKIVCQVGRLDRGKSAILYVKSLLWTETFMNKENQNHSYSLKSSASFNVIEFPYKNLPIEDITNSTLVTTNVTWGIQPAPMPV
T2 sequence (P18084 24-719, chain 2 of 2): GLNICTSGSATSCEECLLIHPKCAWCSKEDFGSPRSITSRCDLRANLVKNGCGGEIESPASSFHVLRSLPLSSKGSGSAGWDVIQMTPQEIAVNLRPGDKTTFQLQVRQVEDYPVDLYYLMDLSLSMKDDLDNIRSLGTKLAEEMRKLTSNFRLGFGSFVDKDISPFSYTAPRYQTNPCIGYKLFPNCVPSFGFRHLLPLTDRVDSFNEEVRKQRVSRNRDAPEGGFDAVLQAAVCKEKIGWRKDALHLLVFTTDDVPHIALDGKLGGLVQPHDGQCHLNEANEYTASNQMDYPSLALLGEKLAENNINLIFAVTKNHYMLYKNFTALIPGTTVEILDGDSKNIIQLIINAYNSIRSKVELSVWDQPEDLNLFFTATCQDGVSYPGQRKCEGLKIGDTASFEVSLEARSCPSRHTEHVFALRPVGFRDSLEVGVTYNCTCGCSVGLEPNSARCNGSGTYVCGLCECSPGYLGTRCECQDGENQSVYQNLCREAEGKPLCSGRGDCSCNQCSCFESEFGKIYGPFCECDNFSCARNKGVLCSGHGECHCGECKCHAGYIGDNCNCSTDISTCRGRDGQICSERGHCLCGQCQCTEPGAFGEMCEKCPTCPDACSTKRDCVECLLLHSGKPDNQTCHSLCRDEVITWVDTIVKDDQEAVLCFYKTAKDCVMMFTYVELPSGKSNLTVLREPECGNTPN
T1 sequence (P06756 31-992, chain 1 of 2): as the sequence (P06756 31-992, chain 1 of 2) above
T1 sequence (P05106 27-718, chain 2 of 2): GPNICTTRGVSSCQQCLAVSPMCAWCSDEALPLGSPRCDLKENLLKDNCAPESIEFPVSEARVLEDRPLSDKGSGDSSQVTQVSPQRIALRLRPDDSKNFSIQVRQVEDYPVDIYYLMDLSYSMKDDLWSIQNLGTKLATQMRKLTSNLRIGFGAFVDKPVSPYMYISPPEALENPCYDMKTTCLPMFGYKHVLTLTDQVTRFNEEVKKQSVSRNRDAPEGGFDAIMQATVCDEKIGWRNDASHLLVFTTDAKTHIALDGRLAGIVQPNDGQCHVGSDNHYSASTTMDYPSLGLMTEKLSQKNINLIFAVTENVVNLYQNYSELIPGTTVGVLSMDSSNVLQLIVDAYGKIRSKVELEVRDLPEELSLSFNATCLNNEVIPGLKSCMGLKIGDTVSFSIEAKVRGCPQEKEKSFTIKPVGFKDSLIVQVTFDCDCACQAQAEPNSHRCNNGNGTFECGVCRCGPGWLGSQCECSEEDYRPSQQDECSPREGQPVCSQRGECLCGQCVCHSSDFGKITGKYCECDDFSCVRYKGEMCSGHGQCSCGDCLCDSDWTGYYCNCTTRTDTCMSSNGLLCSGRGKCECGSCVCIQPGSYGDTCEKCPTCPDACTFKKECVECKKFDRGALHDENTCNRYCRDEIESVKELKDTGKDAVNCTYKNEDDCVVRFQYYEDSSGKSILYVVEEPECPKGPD

B1: soluble MICA generated from pKK46 (loop 1 insert extended 5.1sp) (designed binder)
chain: HHHHHHEPHSLRYNLTVLSWDGSVQSGFLTEVHLDGQPFLRCDRQKCRAKPQGQWAEDVLGNKTWDRETRDLTGNGKDLRMTLAHIKDQKEGLHSLQEIRVCEIHEDNSTRSSQHFYYDGELFLSQNLETEEWTMPQSSRAQTLAMNVRNFLKEDAMKTKTHYHAMHADCLQELRRYLKSGVVLRRTVPPMVNVTSGGSGGGSVTRGDTFTQSSGGSGGGVTCRASGFYPWNITLSWRQDGVSLSHDTQQWGDVLPDGNGTYQTWVATRICQGEEQRFTCYMEHSGNHSTHPVPSGK
notes: From pKK34 (His6, Glu125); secreted by 293T cells; also called 1-5.1sp
Turning to B1, the αvβ3 signal worked out at 0.384 OD in the experiment with integrin αVβ3 [1] and 0.467 OD with integrin αVβ3 [3]. Also, the αvβ3 signal/ng was determined as 9.2 signal/ng MICA with integrin αVβ3 [1] and 9.42 signal/ng MICA in the experiment with integrin αVβ3 [3]. Moreover, the αvβ5 signal with integrin αVβ5 [2] was 1.06 OD; with integrin αVβ5 [4], 0.66 OD. Further, the values for the αvβ5 signal/ng in the experiment with integrin αVβ5 [2] and in the experiment with integrin αVβ5 [4] were 25.5 signal/ng MICA and 13.3 signal/ng MICA, respectively.

B2: WT α1-α2 domain soluble MICA protein (competitor and analyte) (ligand)
chain: EPHSLRYNLTVLSWDGSVQSGFLTEVHLDGQPFLRCDRQKCRAKPQGQWAEDVLGNKTWDRETRDLTGNGKDLRMTLAHIKDQKEGLHSLQEIRVCEIHEDNSTRSSQHFYYDGELFLSQNLETKEWTMPQSSRAQTLAMNVRNFLKEDAMKTKTHYHAMHADCLQELRRYLKSGVVLRRTVPPMVQVTRSEASGGSGDRVTITCRASQDVSTAVAWYQQKPGKAPKLLIYSASFLYSGVPSRFSGSGSGTDFTLTISSLQPEDFATYYCQQSYTTPPTFGQGTKVEIKGGSSRSSSSGGGGSGGGGEVQLVESGGGLVQPGGSLRLSCAASGFTFTSTGISWVRQAPGKGLEWVGRIYPTNGSTNYADSVKGRFTISADTSKNTAYLQMNSLRAEDTAVYYCARTYGIYDLYVDYTEYVMDYWGQGTLVTVSSGGSSRSSSSGGGGSGGGGDIQMTQSPSSLSASGGSGQITVTCRASGFYPWNITLSWRQDGVSLSHDTQQWGDVLPDGQGTYQTWVATRISQGEEQRFTCYMEHSGQHSTHPVPSGKGSHHHHHH
notes: also called wild-type (WT); WT MICA
As to B2, in the experiment with biotinylated human NKG2D [5], the Kd (commonly the concentration at which binding is half-saturated) was determined as 13.8 nM. In addition, the IC50 – broadly, the point on the concentration scale where inhibition reaches its midpoint – with human NKG2D-Fc amounted to 19.4 nM. In the experiment with biotinylated human NKG2D [6], the koff (as a rule, the rate constant with which the complex falls apart) is 0.0018 s⁻¹ and the on-rate constant (kon) (as a rule, the second-order rate constant of association) was 130000 M⁻¹ s⁻¹.

B3: WED-MICA (WED-α1-α2 domain; N69W, K152E, K154D) (designed binder)
chain: B2 chain with N69W, K152E, K154D
notes: Whole entry as named
In the case of B3, in the experiment with biotinylated human NKG2D [5], the “apparent Kd (pooled screen)” value was 5.9 nM. For the same molecule, in the experiment with human NKG2D-Fc, the IC50 came to 4.4 nM. Also, in the experiment with biotinylated human NKG2D [6], the “apparent koff (pooled screen)” value was found to be 0.0017 s⁻¹ and the “apparent kon (pooled screen)” value amounted to 290000 M⁻¹ s⁻¹.

B4: soluble MICA generated from pKK128 (loop 1 extended 5.1sp, loop 3 extended 3.2sp) (designed binder)
chain: HHHHHHEPHSLRYNLTVLSWDGSVQSGFLTEVHLDGQPFLRCDRQKCRAKPQGQWAEDVLGNKTWDRETRDLTGNGKDLRMTLAHIKDQKEGLHSLQEIRVCEIHEDNSTRSSQHFYYDGELFLSQNLETEEWTMPQSSRAQTLAMNVRNFLKEDAMKTKTHYHAMHADCLQELRRYLKSGVVLRRTVPPMVNVTSGGSGGGSVTRGDTFTQSSGGSGGGVTCRASGFYPWNITLSWRQDGVSLSHDTQQWGDVLPDGNGTYQTWVATRISGGSGGGSTSRGDHPRTQSGGSGGGCYMEHSGNHSTHPVPSGK
notes: From pKK115 (from pKK46: His6, Glu125); secreted by 293T cells; also called 1-5.1sp/3-3.2sp
For the molecule B4, in the experiment with integrin αVβ3 [3], the αvβ3 signal was 0.811 OD and the αvβ3 signal/ng worked out at 22.9 signal/ng MICA. In the experiment with integrin αVβ5 [4], this molecule registered a αvβ5 signal of 1 OD and a αvβ5 signal/ng of 28.3 signal/ng MICA.

B5: soluble MICA generated from pKK130 (loop 1 extended 5.1sp, loop 3 extended 5.3sp) (designed binder)
chain: B4 chain with T279H, S280L, R281A, G282R, D283G, H284D, P285D, R286L, Q288Y
notes: From pKK115 (from pKK46: His6, Glu125); secreted by 293T cells; also called 1-5.1sp/3-5.3sp
With B5, in the experiment with integrin αVβ3 [3], the αvβ3 signal came out at 0.606 OD and the αvβ3 signal/ng stood at 19.6 signal/ng MICA. In the experiment with integrin αVβ5 [4], the αvβ5 signal was 0.832 OD and the αvβ5 signal/ng was found to be 26.9 signal/ng MICA.

B6: M13 phage pKK93 displaying MICA α3 domain with loop 1 insert 3.2 (designed binder)
chain: TVPPMVNVTRTSRGDHPRTQVTCRASGFYPWNITLSWRQDGVSLSHDTQQWGDVLPDGNGTYQTWVATRICQGEEQRFTCYMEHSGNHSTHPVPSGK
notes: also called 1-3.2; not shown: C-terminal portion of M13 gene III protein, fused at codon position 198
Regarding B6, the αvβ3 signal with integrin αVβ3 [7] worked out at 0.284 OD; in the experiment with integrin αVβ3 [9] it was 0.616 OD. The results for the αvβ5 signal in the experiment with integrin αVβ5 [8] and with integrin αVβ5 [10] were 0.291 OD and 0.774 OD, respectively.

B7: soluble MICA generated by pSW273 (wild type loops, negative control) (ligand)
chain: HHHHHHEPHSLRYNLTVLSWDGSVQSGFLTEVHLDGQPFLRCDRQKCRAKPQGQWAEDVLGNKTWDRETRDLTGNGKDLRMTLAHIKDQKEGLHSLQEIRVCEIHEDNSTRSSQHFYYDGELFLSQNLETEEWTMPQSSRAQTLAMNVRNFLKEDAMKTKTHYHAMHADCLQELRRYLKSGVVLRRTVPPMVNVTRSEASEGNITVTCRASGFYPWNITLSWRQDGVSLSHDTQQWGDVLPDGNGTYQTWVATRICQGEEQRFTCYMEHSGNHSTHPVPSGK
notes: Secreted by 293T cells; six His between signal peptide and residue 1; made from pSW267 (Glu125); also called WT
As to B7, the binding result with integrin αVβ3 [1] is given as “no binding”. Besides, the binding result with integrin αVβ5 [2] is “no binding”. In the experiment with integrin αVβ3 [3], this molecule showed a αvβ3 signal of 0.099 OD and a αvβ3 signal/ng of 6.73 signal/ng MICA. Also, in the experiment with integrin αVβ5 [4], the αvβ5 signal was determined as 0.1 OD and the αvβ5 signal/ng was 6.8 signal/ng MICA.
